Measured values published in US20240158497A1 (published 2024).

T1: human GP130 extracellular domain expressed with a C-terminal mouse IgG2a Fc tag (hGP130-mFc) (human)
T1 construct: also called dimeric human GP130
T1 chain: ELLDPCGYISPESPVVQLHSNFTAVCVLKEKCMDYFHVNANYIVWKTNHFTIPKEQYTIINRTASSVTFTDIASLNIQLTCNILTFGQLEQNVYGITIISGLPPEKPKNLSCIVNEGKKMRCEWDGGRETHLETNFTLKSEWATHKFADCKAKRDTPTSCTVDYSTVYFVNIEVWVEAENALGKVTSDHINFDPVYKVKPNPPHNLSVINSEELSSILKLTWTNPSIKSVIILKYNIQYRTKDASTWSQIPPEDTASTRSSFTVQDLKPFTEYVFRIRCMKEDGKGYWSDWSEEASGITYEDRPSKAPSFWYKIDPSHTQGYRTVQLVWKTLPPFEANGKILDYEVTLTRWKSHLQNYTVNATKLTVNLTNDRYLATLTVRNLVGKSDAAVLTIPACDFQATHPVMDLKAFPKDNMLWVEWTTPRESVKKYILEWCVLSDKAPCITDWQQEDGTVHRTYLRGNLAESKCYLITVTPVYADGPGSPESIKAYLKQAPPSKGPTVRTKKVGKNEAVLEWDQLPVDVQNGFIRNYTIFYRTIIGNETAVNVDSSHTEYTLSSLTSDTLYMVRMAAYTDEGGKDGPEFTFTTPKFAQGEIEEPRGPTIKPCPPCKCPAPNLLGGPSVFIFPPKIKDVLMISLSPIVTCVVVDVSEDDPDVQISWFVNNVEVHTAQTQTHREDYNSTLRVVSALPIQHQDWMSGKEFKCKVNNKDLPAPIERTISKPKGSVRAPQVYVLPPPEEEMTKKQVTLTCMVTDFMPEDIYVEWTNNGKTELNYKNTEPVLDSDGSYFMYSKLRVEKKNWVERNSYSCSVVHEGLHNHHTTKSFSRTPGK

B1: MAb16680 (antibody, V domains shown)
VH: QVQLQQSGPGQMKSSQTLTLTCAISGDSVSSNSAIWYWIRQSPSRGLEWLGRTKFRSKWYNDFALSMKSRITINPDTSKNQFSLHLNSVTPEDTAVYYCARYKWELYFDYWGQGTLVTVSS
VL: not shown
notes: captured through anti-human Fc
B2: MAb16618 (antibody, V domains shown)
VH: QVQLQESGPGLVKPSETLSLTCTVSGGSISNYYWTWIRQPPGKGLEWIGHISNSGTTNYNPSLKSRVTISVDTSKNQFSLKLTSVTAADTAVYYCARLPLGIAAVDTDYYYYFGMDVWGQGTTVTVSS
VL: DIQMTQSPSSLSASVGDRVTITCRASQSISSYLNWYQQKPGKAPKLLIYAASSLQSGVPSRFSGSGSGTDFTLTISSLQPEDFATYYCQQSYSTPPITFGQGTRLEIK
notes: as for B1
B3: MAb16614 (antibody, V domains shown)
VH: QVQLVESGGGVVQPGGSLRLSCAASGFTFSTYDIHWVRQAPGKGLEWVAVISFDGSNRNYGDSVKGRFTISRDNSDNTLFLEMNNLRFEDTAVYYCAKEGYGVDFQHWGQGTLVTVSS
VL: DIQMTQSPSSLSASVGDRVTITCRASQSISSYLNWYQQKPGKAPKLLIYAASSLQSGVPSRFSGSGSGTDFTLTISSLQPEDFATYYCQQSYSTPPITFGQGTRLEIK
notes: as for B1
B4: MAb16623 (antibody, V domains shown)
VH: EVQLVESGGGLVQPGGSLRLSCAASGLTFSSYEMNWVRQAPGKGLEWVSHISSAGSTKYYADSVKGRFTISRDNAKNSLFLQMNSLRAEDTAIYYCAGYNYAYYYFGVDVWGQGTTVTVSS
VL: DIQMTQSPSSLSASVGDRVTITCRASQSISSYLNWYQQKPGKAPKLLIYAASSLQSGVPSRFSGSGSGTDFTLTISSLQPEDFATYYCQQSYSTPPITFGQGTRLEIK
notes: as for B1
B5: MAb16622 (antibody, V domains shown)
VH: EVQLVESGGGVVRPGGSLRLSCTASGFTFDDYGMSWVRQAPGKGLEWVSGINWNGGRTEYADAVKGRFIISRDNAKNSLYLQMNSLRAEDTALYFCARTELRWDYWGQGTLVTVSS
VL: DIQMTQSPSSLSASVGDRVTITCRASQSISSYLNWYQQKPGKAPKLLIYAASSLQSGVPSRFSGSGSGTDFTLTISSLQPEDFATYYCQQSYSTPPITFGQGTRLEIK
notes: as for B1
B6: MAb16680 (antibody, V domains shown)
VH: B1 VH
VL: not shown
notes: hIgG4 isotype control used

What follows are binders tested against T2, mouse GP130 extracellular domain expressed with a C-terminal myc-myc-hexahistidine tag (mGP130-mmH) (mouse, UniProt Q00560 23-617) (assay: SPR Biacore, mAb captured via anti-hFc, 25 C).
T2 construct: Monomeric; the entry includes the myc-myc-His tag
Protocol: (§1) Equilibrium dissociation constant (KD) for different GP130 reagents binding to purified anti-GP130 monoclonal antibodies were determined using a real-time surface plasmon resonance based Biacore 4000 biosensor. All binding studies were performed in 10 mM HEPES, 150 mM NaCl, 3 mM EDTA, and 0.05% v/v Surfactant Tween-20, pH 7.4 (HBS-ET) running buffer at 25° C. and 37° C. The Biacore sensor surface was first derivatized by amine coupling with a monoclonal mouse anti-human Fc antibody (GE, #BR-1008-39) to capture anti-GP130 monoclonal antibodies. […] Reagents tagged with “mmH” are monomeric, whereas reagents tagged with “mFc” are dimeric. Thus, for example, “hGP130-mmH” is also referred to as “monomeric human GP130,” and “hGP130-mFc” is also referred to as “dimeric human GP130.”
(§2) The association rate (k a) and dissociation rate (kd) were determined by fitting the real-time binding sensorgrams to a 1:1 binding model with mass transport limitation using Scrubber 2.0c curve-fitting software. Binding dissociation equilibrium constant (KD) and dissociative half-life (t ½) were calculated from the kinetic rates as: […]
For B1, the “100 nM Ag Bound (RU)” value was 0 RU. With B2 the “100 nM Ag Bound (RU)” value was 1 RU and the binding result was “no binding (tested: 100 nM)”. B3 was tested, and the “100 nM Ag Bound (RU)” value was 1 RU and the binding result was “no binding (tested: 100 nM)”. B4 was tested, and the “100 nM Ag Bound (RU)” value was 0 RU and the binding result was “no binding (tested: 100 nM)”. B5 was tested, and the “100 nM Ag Bound (RU)” value was 1 RU and the binding result was “no binding (tested: 100 nM)”.

What follows are binders tested against T3, rat GP130 extracellular domain expressed with a C-terminal myc-myc-hexahistidine tag (rGP130-mmH) (rat, UniProt P40190 23-618) (assay: SPR Biacore, mAb captured via anti-hFc, 25 C).
T3 construct: Monomeric; the entry includes the myc-myc-His tag
Protocol: as §1, §2
B1 was tested, and the “100 nM Ag Bound (RU)” value was 2 RU and the binding result was “no binding (tested: 100 nM)”. B2 was tested, and the “100 nM Ag Bound (RU)” value was 6 RU and the binding result was “no binding (tested: 100 nM)”. For B3, the “100 nM Ag Bound (RU)” value was 0 RU and the binding result was “no binding (tested: 100 nM)”. For B4, the “100 nM Ag Bound (RU)” value was 0 RU and the binding result was “no binding (tested: 100 nM)”. B5 was tested, and the “100 nM Ag Bound (RU)” value was 0 RU and the binding result was “no binding (tested: 100 nM)”.

Molecular target: T1, human GP130 extracellular domain …
Experiment: SPR Biacore, mAb captured via anti-hFc, 25 C
Protocol: as §1, §2
With B2 the “100 nM Ag Bound (RU)” value was 202 RU, the Kd was 236 pM and the koff was 0.000279 s⁻¹. For the same binder, the kon was 1.19e+06 M⁻¹ s⁻¹ and the t½ was 41 min. In the case of B3, the “100 nM Ag Bound (RU)” value is reported as 83 RU, the Kd is reported as 4470 pM and the koff is reported as 0.000383 s⁻¹. For the same binder, the kon was 85700 M⁻¹ s⁻¹ and the t½ was 30 min. With B4 the “100 nM Ag Bound (RU)” value was 184 RU, the Kd was 468 pM and the koff was 0.000208 s⁻¹. It also gave a kon of 444000 M⁻¹ s⁻¹ and a t½ of 56 min. With B5 the “100 nM Ag Bound (RU)” value was 164 RU, the Kd was 615 pM and the koff was 0.000306 s⁻¹. It also gave a kon of 497000 M⁻¹ s⁻¹ and a t½ of 38 min.

Each binder was assayed against T4, human GP130 delta D1-D3 with C-terminal myc-myc hexahistidine tag (human, UniProt P40189 329-619) (assay: Luminex, antigen captured on anti-myc beads).
T4 construct: used as CHO supernatant; also called human GP130 delta D1-D3-MMH; GP130 Delta D1-D3 extracellular domain
Protocol: Aliquots of microspheres with immobilized anti-myc monoclonal antibodies, prepared as described above, were added individually to 1 mL of the each of these protein supernatants and to 500 uL of purified GP130 protein. The microspheres were gently mixed, incubated for two hours at 25° C., washed twice with 1 mL of DBPS, centrifuged to remove the supernatant and finally resuspended in 1 mL of DPBS buffer. Forty eight μL of anti-myc IgG coupled microspheres from individual reactions with full length human GP130 and with each of the human GP130 domain proteins were withdrawn and mixed together in 3.6 mL of PBS+20 mg/mL BSA+0.05% sodium azide (blocking buffer).
From this mixed pool, 75 μL of microspheres were plated per well on a 96 well filter plate (Millipore, Cat. No: MSBVN1250) and mixed with 25 μL of individual anti-human GP130 monoclonal antibodies (0.5 or 5 μg/mL), incubated for two hours at 25° C. and then washed twice with 200 μL of DPBS with 0.05% Tween 20 (washing buffer). To detect and quantify the amounts of bound anti-GP130 antibody levels to individual microspheres, either 100 μL of 2.5 μg/mL R-Phycoerythrin conjugated goat F(ab′)2 anti-human kappa (Southern Biotech, Cat #2063-09) in blocking buffer, was added and incubated for 30 minutes at 25° C. After 30 minutes, the samples were washed twice with 200 μL of washing buffer and resuspended in 150 μL of wash buffer. The Median Fluorescence intensity (MFI) of the microspheres was measured in a Luminex Analyzer.
B6 was tested, and the “Luminex MFI signal” value was 18700 MFI.

Each binder was assayed against T2, mouse GP130 extracellular domain … (assay: SPR Biacore, mAb captured via anti-hFc, 37 C).
Protocol: as §1, §2
In the case of B1, the “100 nM Ag Bound (RU)” value is reported as 0 RU and the binding result is reported as “no binding (tested: 100 nM)”. For B2, the “100 nM Ag Bound (RU)” value was 0 RU. For B3, the “100 nM Ag Bound (RU)” value was 0 RU. In the case of B4, the “100 nM Ag Bound (RU)” value is reported as 0 RU. In the case of B5, the “100 nM Ag Bound (RU)” value is reported as 1 RU.

What follows are binders tested against T3, rat GP130 extracellular domain … (assay: SPR Biacore, mAb captured via anti-hFc, 37 C).
Protocol: as §1, §2
In the case of B1, the “100 nM Ag Bound (RU)” value is reported as 1 RU. For B2, the “100 nM Ag Bound (RU)” value was 2 RU. In the case of B3, the “100 nM Ag Bound (RU)” value is reported as 0 RU. For B4, the “100 nM Ag Bound (RU)” value was 0 RU. In the case of B5, the “100 nM Ag Bound (RU)” value is reported as 1 RU.

Molecular target: T1, human GP130 extracellular domain …
Experiment: SPR Biacore, mAb captured via anti-hFc, 37 C
Protocol: as §1, §2
For B2, the “100 nM Ag Bound (RU)” value was 236 RU, the Kd was 674 pM and the koff was 0.000934 s⁻¹. For the same binder, the kon was 1.39e+06 M⁻¹ s⁻¹ and the t½ was 12 min. In the case of B3, the “100 nM Ag Bound (RU)” value is reported as 85 RU, the Kd is reported as 9560 pM and the koff is reported as 0.00172 s⁻¹. The kon was 180000 M⁻¹ s⁻¹ and the t½ was 7 min. In the case of B4, the “100 nM Ag Bound (RU)” value is reported as 224 RU, the Kd is reported as 560 pM and the koff is reported as 0.000325 s⁻¹. For the same binder, the kon was 580000 M⁻¹ s⁻¹ and the t½ was 36 min. B5 was tested, and the “100 nM Ag Bound (RU)” value was 201 RU, the Kd was 1290 pM and the koff was 0.000825 s⁻¹. For the same binder, the kon was 639000 M⁻¹ s⁻¹ and the t½ was 14 min.
